According to paper PMC8229176:

Biological target: ACE2 on ACE2-transfected HEK293 cells (UniProt Q9BYF1)
Test: flow cytometry on cells

UniProt Q9BYF1, sequence (Q9BYF1 18-805): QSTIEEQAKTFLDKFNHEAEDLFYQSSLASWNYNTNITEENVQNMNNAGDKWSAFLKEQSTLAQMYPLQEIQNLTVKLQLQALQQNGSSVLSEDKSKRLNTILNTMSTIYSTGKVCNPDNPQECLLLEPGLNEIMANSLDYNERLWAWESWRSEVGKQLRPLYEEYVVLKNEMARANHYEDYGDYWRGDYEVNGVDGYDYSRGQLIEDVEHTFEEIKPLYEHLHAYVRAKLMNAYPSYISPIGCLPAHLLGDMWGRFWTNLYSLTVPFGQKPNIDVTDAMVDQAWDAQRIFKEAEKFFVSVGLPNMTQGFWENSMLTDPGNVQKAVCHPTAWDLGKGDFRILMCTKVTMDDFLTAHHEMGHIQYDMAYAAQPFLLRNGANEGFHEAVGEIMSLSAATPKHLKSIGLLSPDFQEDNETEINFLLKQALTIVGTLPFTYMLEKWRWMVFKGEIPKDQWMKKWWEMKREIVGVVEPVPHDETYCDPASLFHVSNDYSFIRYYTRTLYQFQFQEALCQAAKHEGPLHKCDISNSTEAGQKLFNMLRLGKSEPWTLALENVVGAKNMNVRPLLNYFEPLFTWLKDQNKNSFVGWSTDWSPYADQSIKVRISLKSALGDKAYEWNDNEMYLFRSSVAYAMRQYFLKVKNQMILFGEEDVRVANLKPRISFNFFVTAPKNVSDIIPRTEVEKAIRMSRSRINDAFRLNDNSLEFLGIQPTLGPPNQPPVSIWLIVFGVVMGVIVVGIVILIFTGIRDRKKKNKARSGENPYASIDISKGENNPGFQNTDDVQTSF

Substance “SARS-CoV-2 spike protein receptor-binding domain (RBD), His6-tagged (domain or fragment)” has an EC50 of 49.1 nM.
